From patent publication US20210380960

T1: Peptide 2: enriched in hydrophobic residues
T1 chain: LMLLNENRYTSWNSE

T2: Peptide 4: enriched in glycines
T2 chain: GGGGNENRYTSWNSE

T3: Peptide 7 (random peptide)
T3 chain: GISEQFKTNVLREYA

T4: Peptide 5: enriched with aromatic residues
T4 chain: YFLMNENRYTSWNSE

T5: Peptide 1: enriched in negatively charged residues
T5 chain: EEDEKRRKYTSWNSE

B1: PhTET2 (protein)
chain: MEVRNMVDYELLKKVVEAPGVSGYEFLGIRDVVIEEIKDYVDEVKVDKLGNVIAHKKGEGPKVMIAAHMDQIGLMVTHIEKNGFLRVAPIGGVDPKTLIAQRFKVWIDKGKFIYGVGASVPPHIQKPEDRKKAPDWDQIFIDIGAESKEEAEDMGVKIGTVITWDGRLERLGKHRFVSIAFDDRIAVYTILEVAKQLKDAKADVYFVATVQEEVGLRGARTSAFGIEPDYGFAIDVTIAADIPGTPEHKQVTHLGKGTAIKIMDRSVICHPTIVRWLEELAKKHEIPYQLEILLGGGTDAGAIHLTKAGVPTGALSVPARYIHSNTEVVDERDVDATVELMTKALENIHELKI
B2: PhTET4 (protein)
chain: MERIVKILREILEIPSPTGYTKEVMSYLEKFLKENEVNFYYTNKGALIAGNHPKPELVVIAHVDTLGAMVKEILPDGHLAFSRIGGLVLPTFEGEYCTIITRKGKKFRGTLLLRNPSAHVNREVGKKERKEENMYIRLDELVEKREDTEKLGIRPGDFIAFDPKFEYVNGFVKSHFLDDKASVAAILDLIIDMKDELEKYPVAFFFSPYEEVGHGGSAGYPPTTKELLVVDMGVVGEGVSGKETAVSIAAKDTTGPYDYDMTNRLIELAEENNIPYVVDVFPYYGSDGSAALRAGWDFRVALIGPGVHASHGMERTHVKGLLATKELIRAYIKWKG
B3: MjTET (protein)
chain: MSVVEYLKKLSKLHGISGREDSVREFMKKELEKYCDSVEIDNFGNLIAKRGNKGKKIMIAAHMDEIGLMVKYIDDNGFLKFTKIGGIYDPTILNQKVVVHGSKGDLIGVLGSKPPHRMKEEEKTKIIKYEDMFIDIGAESREEAIEMGVNIGTWVSFLSEVYDLGKNRLTGKAFDDRVGCAVLLEVMKRLSEEDIDCQVYAVGTVQEEVGLKGARVSAFKINPDVAIALDVTIAGDHPGIKKEDAPVDLGKGPVVGIVDASGRGLIAHPKVLDMIKAVSEKYKIDVQWEVGEGGTTDATAIHLTREGIPTGVISVPARYIHTPVEVIDKRDLEKTVELVYNCIKEVNNFF
B4: PhTET1 (protein)
chain: MMSMIEKLKKFTQIPGISGYEERIREEIIREIKDFADYKVDAIGNLIVELGEGEERILFMAHMDEIGLLITGITDEGKLRFRKVGGIDDRLLYGRHVNVVTEKGILDGVIGATPPHLSLERDKSVIPWYDLVIDIGAESKEEALELVKPLDFAVFKKHFSVLNGKYVSTRGLDDRFGVVALIEAIKDLVDHELEGKVIFAFTVQEEVGLKGAKFLANHYYPQYAFAIDSFACCSPLTGDVKLGKGPVIRAVDNSAIYSRDLARKVWSIAEKNGIEIQIGVTGGGTDASAFQDRSKTLALSVPIKYLHSEVETLHLNDLEKLVKLIEALAFEL
B5: PhTET3 (protein)
chain: MDLKGGESMVDWKLMQEIIEAPGVSGYEHLGIRDIVVDVLKEVADEVKVDKLGNVIAHFKGSSPRIMVAAHMDKIGVMVNHIDKDGYLHIVPIGGVLPETLVAQRIRFFTEKGERYGVVGVLPPHLRRGQEDKGSKIDWDQIVVDVGASSKEEAEEMGFRVGTVGEFAPNFTRLNEHRFATPYLDDRICLYAMIEAARQLGDHEADIYIVGSVQEEVGLRGARVASYAINPEVGIAMDVTFAKQPHDKGKIVPELGKGPVMDVGPNINPKLRAFADEVAKKYEIPLQVEPSPRPTGTDANVMQINKEGVATAVLSIPIRYMHSQVELADARDVDNTIKLAKALLEELKPMDFTP

Experiments:
[1] = molecular target: T1, Peptide 2: enriched in hydrophobic …
[2] = molecular target: T2, Peptide 4: enriched in glycines
[3] = molecular target: T3, Peptide 7 (random peptide)
[4] = molecular target: T4, Peptide 5: enriched with aromatic …
[5] = molecular target: T5, Peptide 1: enriched in negatively …

Protein | hydrolysis of peptide 7 incorporated into a casein hydrolyzate, RP-HPLC [3] | kinetics of hydrolysis of the peptide, RP-HPLC after 5, 15 and 30 min [3] | hydrolysis of the peptide, RP-HPLC after 15 min at 40° C. [4] | hydrolysis of the peptide, RP-HPLC after 15 min at 60° C. [4] | other results
B1 |  |  |  |  | hydrolysis of the peptide, RP-HPLC after 15 min [1]: the first residues of the peptide were hydrolyzed more quickly in the presence of PhTET3 than in the presence of PhTET2
B2 | only the peptide of interest is hydrolysed by the aminopeptidase PhTET4 and, this, almost completely | only the hydrolysis of the first glycine residue was observed |  |  | hydrolysis of the peptide, RP-HPLC after 15 min [2]: no hydrolysis activity is observed
B3 | the peptide of interest is not very hydrolyzed | we observe, in addition to the peptide pep-1, the peptides pep-2 and pep-3, and what corresponds to pep-4 ... between 15 and 30 min, the concentration of the substrate peptide pep-0 does not seem to have decreased | all the intermediate peptides are visible as well as the final product pep-4, and there is only a significant slowdown in hydrolysis | part of the intact peptide is still present in the reaction medium, while the residues of the hydrolysis products are present in almost equivalent amounts. There is a slight accumulation of the final hydrolysis product, the peptide pep-4 | 
B4 |  |  |  |  | hydrolysis of the peptide, RP-HPLC after 15 min [5]: no hydrolysis activity is observed
B5 | the peptide of interest is not very hydrolyzed |  | a significant decrease in hydrolysis is observed. In fact, in this case, only the peptide pep-1 is visible and in very small quantity | there is an accumulation of the peptide pep-1 while the intact substrate peptide is no longer present in the medium | hydrolysis of the peptide, RP-HPLC after 15 min (PhTET3 alone, 5% experiment) [4]: there is a strong accumulation of the peptide pep-1 after the 15 minutes of incubation of the aminopeptidase with the substrate peptide; hydrolysis of the peptide, RP-HPLC and mass spectrometry [4]: significant accumulation of peptides whose tyrosine at the N-terminal end has been hydrolyzed
